In US20220281990A1 (MERRIMACK PHARMACEUTICALS, published 2022):
Values belong to the binder of their own block, whether it stands above or below them.

What was measured:
[1] = molecular target: T1, Human TNFR2 expressed on cells (CHO-hTNFR2 cells) (human, UniProt P20333 23-461); experiment: flow cytometry; soluble scFv inhibiting TNF (1 nM) binding to CHO-hTNFR2 cells (FIGS. 5A-5B)
T1 construct: also called CHO cells overexpressing human TNFR2; human TNFR2 reporter cells (HEK293)
T1 sequence: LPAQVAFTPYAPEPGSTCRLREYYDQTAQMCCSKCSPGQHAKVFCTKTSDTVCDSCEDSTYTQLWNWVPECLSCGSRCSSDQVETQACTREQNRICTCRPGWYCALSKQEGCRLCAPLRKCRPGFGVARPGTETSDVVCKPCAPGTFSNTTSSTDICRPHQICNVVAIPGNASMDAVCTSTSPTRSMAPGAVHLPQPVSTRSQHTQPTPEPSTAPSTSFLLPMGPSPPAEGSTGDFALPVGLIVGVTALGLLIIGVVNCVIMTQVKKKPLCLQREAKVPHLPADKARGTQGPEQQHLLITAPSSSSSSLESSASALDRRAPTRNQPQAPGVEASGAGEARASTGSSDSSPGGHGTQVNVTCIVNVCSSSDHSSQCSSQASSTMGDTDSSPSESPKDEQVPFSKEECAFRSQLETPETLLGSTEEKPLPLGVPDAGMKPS

[2] = molecular target: T1, Human TNFR2 expressed on cells …; experiment: flow cytometry; soluble scFv inhibiting TNF (1 nM) binding to CHO-hTNFR2 cells (FIG. 7)
[3] = molecular target: T2, recombinant human TNFR2-hFc protein (human, UniProt P20333 23-257); experiment: flow cytometry; hTNFR2-Fc binding to scFv displayed on yeast (FIG. 4)
T2 construct: also called hTNFR2-Fc; human TNFR2-Fc; not shown: human Fc
T2 sequence: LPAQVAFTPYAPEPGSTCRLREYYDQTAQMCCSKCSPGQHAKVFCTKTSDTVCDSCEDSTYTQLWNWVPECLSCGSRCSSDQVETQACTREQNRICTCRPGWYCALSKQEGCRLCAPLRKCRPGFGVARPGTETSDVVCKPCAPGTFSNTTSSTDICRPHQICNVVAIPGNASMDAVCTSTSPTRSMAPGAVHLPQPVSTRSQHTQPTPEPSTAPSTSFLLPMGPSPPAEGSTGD

[4] = molecular target: T2, recombinant human TNFR2-hFc protein; experiment: flow cytometry; hTNFR2-Fc binding to scFv displayed on yeast; one site binding fit (FIG. 6B); FIG. 6B
[5] = molecular target: T3, recombinant human TNFR2-His (human, UniProt P20333 23-257); experiment: flow cytometry; hTNFR2-His binding to scFv displayed on yeast (FIG. 8)
T3 construct: also called hTNFR2-His; TNFR2-His protein; not shown: His tag
T3 sequence: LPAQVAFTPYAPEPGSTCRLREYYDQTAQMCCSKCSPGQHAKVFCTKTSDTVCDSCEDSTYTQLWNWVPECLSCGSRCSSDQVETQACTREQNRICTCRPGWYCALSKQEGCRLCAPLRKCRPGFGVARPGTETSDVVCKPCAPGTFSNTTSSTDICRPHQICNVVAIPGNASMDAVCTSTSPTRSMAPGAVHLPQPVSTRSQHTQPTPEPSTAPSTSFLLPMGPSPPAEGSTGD

[6] = molecular target: T2, recombinant human TNFR2-hFc protein; experiment: flow cytometry; hTNFR2-Fc binding to scFv displayed on yeast; one site binding fit (FIG. 4)
[7] = molecular target: T2, recombinant human TNFR2-hFc protein; experiment: flow cytometry; hTNFR2-Fc binding to scFv displayed on yeast; one site binding fit (FIG. 6B)
[8] = molecular target: T2, recombinant human TNFR2-hFc protein; experiment: flow cytometry; TNFR2-Fc binding to scFv displayed on yeast (FIGS. 6A-6C)
[9] = molecular target: T2, recombinant human TNFR2-hFc protein; experiment: flow cytometry; hTNFR2-Fc binding to scFv displayed on yeast; one site binding fit (FIG. 6C)
[10] = molecular target: T2, recombinant human TNFR2-hFc protein; experiment: flow cytometry; hTNFR2-Fc binding to scFv displayed on yeast; one site binding fit (FIG. 6A)
[11] = molecular target: T1, Human TNFR2 expressed on cells …; experiment: flow cytometry; IgG inhibiting TNF (1 nM) binding to CHO-hTNFR2 cells (FIG. 13A); FIG. 13A
[12] = molecular target: T1, Human TNFR2 expressed on cells …; experiment: flow cytometry; IgG inhibiting TNF (1 nM) binding to CHO-hTNFR2 cells (FIG. 12)
[13] = molecular target: T1, Human TNFR2 expressed on cells …; experiment: flow cytometry; IgG binding to CHO-hTNFR2 cells; four parameter fit (FIG. 10)
[14] = molecular target: T3, recombinant human TNFR2-His; experiment: biolayer interferometry (BLI); IgG1 and TNFR2-His protein (FIG. 11)
[15] = molecular target: T1, Human TNFR2 expressed on cells …; experiment: flow cytometry; IgG inhibiting TNF (1 nM) binding to CHO-hTNFR2 cells (FIG. 13B); FIG. 13B

B1: UC2.3 (S4-2 1D10-1G9) scFv (scFv)
scFv: QVQLLESGGGLVQPGGSLRLSCAASGFTFSTYAMSWIRQAPGKGLEWVSIISDGGDATVYADSVKGRFTISRDNSKNTLYLQMNSLRAEDTAVYYCARDGTSAAAFDSWGQGTLVTVSSASSGGSTSGSGKPGSGEGSSGSARDIQMTQSPSSLSASVGDRVTITCQASQDITNFLNWYQQKPGKAPKLLIYDASTLQTGVPSRFSGSGSGTDFTFTISSLQPEDIATYYCQQSDSYPITFGQGTKVEIKR
IC50 [1]: 6.59 nM
IC50 [2]: 4.85 nM
fold higher affinity (vs parental scFv) [3]: ~5 fold
Kd [4]: 8.16 nM
EC50 [5]: 33.9 nM
Kd [6]: 8.88 nM

B2: UC2.3.3 (S4-2 1D10-1G9-1F10) scFv (scFv)
scFv: QVQLLESGGGLVQPGGSLRLSCAASGFTFSTYAMSWIRQAPGKGLEWVSIISDGGDATVYADSVKGRFTISRDNNRNTLYLQMNSLRAEDTAVYYCARDGTSAAAFDSWGQGTLVTVSSASSGGSTSGSGKPGSGEGSSGSARDIQMTQSPSSLSASVGDRVTITCQASQDITNFLNWYQQKPGKAPKLLIYDASTLQTGVPSRFSGSGSGTDFTFTISSLQPEDIATYYCQQSDSYPITFGQGTKVEIKR
notes: also called UC2.3.3 (monomer)
Kd [7]: 1.35 nM
fold higher affinity (vs parental scFv) [8]: 10 fold
IC50 [2]: 3.94 nM

B4: UC2.3.3 scFv (dimer) (scFv)
scFv: QVQLLESGGGLVQPGGSLRLSCAASGFTFSTYAMSWIRQAPGKGLEWVSIISDGGDATVYADSVKGRFTISRDNNRNTLYLQMNSLRAEDTAVYYCARDGTSAAAFDSWGQGTLVTVSSASSGGSTSGSGKPGSGEGSSGSARDIQMTQSPSSLSASVGDRVTITCQASQDITNFLNWYQQKPGKAPKLLIYDASTLQTGVPSRFSGSGSGTDFTFTISSLQPEDIATYYCQQSDSYPITFGQGTKVEIKR
notes: also called UC2.3.3 (dimer)
IC50 [2]: 1.72 nM

B5: UC1.1 (S4-2 1B5-1D9) scFv (scFv)
scFv: QVQLLESGGGLVQPGGSLRLSCAASGFSFTSYAMTWVRQAPGKGLEWVSGISGGGAATFYADSVKGRFTISRDNSKNTLYLQMNSLRAEDTAVYYCARQSQYVGGFDYWGQGTLVTVSSASSGGSTSGSGKPGSGEGSSGSARQSVLTQPPSVSGAPGQRVTISCTGSSSNIGAGYGVHWYQQLPGTAPKLLIHGNTNRPSGVPDRFSGFKSGTSASLAITGLQAEDEADYYCQSYDSSLSGWVFGGGTKLTVLG
IC50 [1]: 10.7 nM
fold higher affinity (vs parental scFv) [3]: ~5 fold
Kd [6]: 2.59 nM
Kd [10]: 2.87 nM

B6: UC2.3-IgG1 (antibody, V domains shown)
VH: QVQLLESGGGLVQPGGSLRLSCAASGFTFSTYAMSWIRQAPGKGLEWVSIISDGGDATVYADSVKGRFTISRDNSKNTLYLQMNSLRAEDTAVYYCARDGTSAAAFDSWGQGTLVTVSS
VL: DIQMTQSPSSLSASVGDRVTITCQASQDITNFLNWYQQKPGKAPKLLIYDASTLQTGVPSRFSGSGSGTDFTFTISSLQPEDIATYYCQQSDSYPITFGQGTKVEIKR
notes: Full-length human IgG1; also called anti-human TNFR2 IgG UC2.3
IC50 [11]: 48 nM
IC50 [12]: 12.4 nM
EC50 [13]: 3.4 nM

B9: UC2-IgG1 (antibody, V domains shown)
VH: QVQLLESGGGLVQPGGSLRLSCAASGFTFSTYAMSWVRQAPGKGLEWVSIISDGGDATFYADSVKGRFTISRDNSKNTLYLQMNSLRAEDTAVYYCARDGTSAAAFDSWGQGTLVTVSS
VL: DIQMTQSPSSLSASVGDRVTITCQASQDITNFLNWYQQKPGKAPKLLIYDASTLQTGVPSRFSGSGSGTDFTFTISSLQPEDIATYYCQQSDSYPITFGQGTKVEIKR
notes: Full-length human IgG1; also called anti-human TNFR2 IgG UC2
EC50 [13]: 97.9 nM

Further lines, results first:

fold higher affinity (vs parental scFv) [8]: 10 fold
Kd [9]: 0.78 nM
B3: UC2.3.15 (S4-2 1D10-1G9-1H12) scFv (scFv)
scFv: QVQLLESGGGLVQPGGSLRLSCAVSGFTFSTYAMSWIRQAPGKGLEWVSIISDGGDATVYADSVKGRFTISRDNSKNTLYLQMNSLRAEDTAVYYWARDGTSAAAFDSWGQGTLVTVSSANSGGSTSGSGKPGSGEGSSGSARDIQMTQSPSSLSASVGDRVTITCQASQDITNFLNWYQQKPGKAPKLLIYDASTLQTGVPSRFSGSGSGTDFTFTISSLQPEDIATYYCQQSDSYPITFGQGTKVEIKR

Kd [14]: 0.344 nM
IC50 [15]: 0.088 nM
B7: UC2.3.8-IgG1 (antibody, V domains shown)
VH: QVQLLESGGGLVQPGGSLRLSCAASGFTFSTYAMSWIRQAPGKGLEWVSIISDGGDATVYADSVKGRFTISRDNNRNTLYLQMNSLRAEDTAVYYCARDGTSAAAFDSWGQGTLVTVSS
VL: DIQMTQSPSSLSASVGDRVTITCQASQDITNFLNWYQQKPGKAPKLLIYDASRRRAGVPSRFSGSGSGTDFTFTISSLQPEDIATYYCQQSDSYPITFGQGTKVEIKR
notes: Full-length human IgG1; UC2.3.3 heavy chain combined with UC2.3.7 light chain; also called anti-human TNFR2 IgG UC2.3.8

IC50 [11]: 0.89 nM
Kd [14]: 0.573 nM
IC50 [15]: 0.68 nM
B8: UC2.3.3-IgG1 (antibody, V domains shown)
VH: QVQLLESGGGLVQPGGSLRLSCAASGFTFSTYAMSWIRQAPGKGLEWVSIISDGGDATVYADSVKGRFTISRDNNRNTLYLQMNSLRAEDTAVYYCARDGTSAAAFDSWGQGTLVTVSS
VL: DIQMTQSPSSLSASVGDRVTITCQASQDITNFLNWYQQKPGKAPKLLIYDASTLQTGVPSRFSGSGSGTDFTFTISSLQPEDIATYYCQQSDSYPITFGQGTKVEIKR
notes: Full-length human IgG1; also called anti-human TNFR2 IgG UC2.3.3

IC50 [11]: 8.69 nM
Kd [14]: 17.1 nM
B10: UC2.3.7-IgG1 (antibody, V domains shown)
VH: QVQLLESGGGLVQPGGSLRLSCAASGFTFSTYAMSWIRQAPGKGLEWVSIISDGGDATVYADSVKGRFTISRDNSKNTLYLQMNSLRAEDTAVYYCARDGTSAAAFDSWGQGTLVTVSS
VL: DIQMTQSPSSLSASVGDRVTITCQASQDITNFLNWYQQKPGKAPKLLIYDASRRRAGVPSRFSGSGSGTDFTFTISSLQPEDIATYYCQQSDSYPITFGQGTKVEIKR
notes: Full-length human IgG1; also called anti-human TNFR2 IgG UC2.3.7
